Data as given in patent US20160199445A1 (CENTRE NATIONAL DE LA RECHERCHE SCIENTIFIQUE, published 2016).

Target: T1, Purified Arp2/3 complex
T1 construct: Used in fluorescence anisotropy, pyrene-actin and TIRF assays
Test: fluorescence anisotropy, competition with labelled ArpinA bound to purified Arp2/3 complex

B1: ArpinA peptide (residues 211-226 of full length Arpin), unlabelled synthetic peptide (peptide)
peptide: EIREQGDGAEDEEWDD
notes: Purchased from Proteogenix; also called Arpin Acidic peptide; Acidic peptide
Question: B1 was tested. Which Kd did it give?
Answer: 1.03 µM
